The term EC50 denotes the concentration that produces a half-maximal response. Read a low EC50 as an effect from little substance. As a reminder, the Kd is a measure of binding affinity in units of concentration. Lower therefore signals tighter binding. As usually defined, the koff is the rate constant with which the complex falls apart. Read a high koff as a short-lived complex. Usually kon stands for a measure of how fast the partners come together.

Changes are numbered by the printed parent chain. In names and notes the source's numbering stands.

In assay [1] the target is T1, Human BCMA-Fc (human, UniProt Q02223 1-54).
T1 construct: also called human BCMA-Fc protein; recombinant BCMA-Fc fusion protein; not shown: Fc part (captured by anti-human Fc antibody or Protein A)
T1 sequence (looked up): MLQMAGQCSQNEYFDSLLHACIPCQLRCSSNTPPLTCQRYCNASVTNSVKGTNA
The assay can be described thus: ELISA, human BCMA-Fc captured by anti-human Fc, scFv detected with anti-Flag HRP. As to the method:
An ELISA assay was developed to determine the EC₅₀ of anti-BCMA antibodies. Briefly, 384 well plate was immobilized with anti-human Fc antibody at final concentration of 2 μg/mL in 1×PBS in total volume of 25 uL per well. The plate was incubated overnight at 4° C. followed by blocking with 80 μL of superblock per well for 1 hour. Human BCMA-Fc was captured through immobilized anti-hFc antibody. Purified anti-BCMA scFvs were 2-fold serial titrated from 200 nM. 25 μL of diluted scFv was added to human BCMA immobilized wells and incubated for 1 hour with shaking. The BCMA binding was detected by adding 25 μL of anti-Flag HRP diluted at 1:5000 in 1×PBST. In between each step, the plate was washed 3 times with 1×PBST in a plate washer. The plate was then developed with 20 μL of TMB substrate for 5 mins and stopped by adding 20 μL of 2 N sulfuric acid. The plate was read at OD450 nm Biotek plate reader and then plotted in Prism 8.1 software.

Assay [2] concerns the target T1, Human BCMA-Fc. The assay can be described thus: SPR, Biacore T200, BCMA-Fc captured on Protein A chip, scFv as analyte. The procedure: Kinetic analysis of anti-BCMA scFvs have been assessed by SPR technology with Biacore T200. The assay was run with Biacore T200 control software version 2.0. Protein A sensor chip was used to capture Fc fusion protein in the assay. For each cycle, 1 μg/mL of human BCMA-Fc protein was captured for 60 seconds at flow rate of 10 ul/min on flow cell 2 in 1×HBSP buffer on Protein A sensor chip. 2-fold serial diluted HIS tag purified anti-BCMA scFv was injected onto both reference flow cell 1 and BCMA-Fc captured flow cell 2 for 150 seconds at flow rate of 30 ul/min followed by wash for 300 seconds. The flow cells were then regenerated with Glycine pH2 buffer (GE) for 30 seconds at flow rate of 30 ul/mins. 8 concentration points from 300-0 nM was assayed per anti-BCMA scFv in a 96 well plate. The kinetics of scFvs binding to BCMA protein was analyzed with Biacore T200 evaluation software version 3.0. The specific binding response unit was derived from subtraction of binding to reference flow cell 1 from BCMA captured flow cell 2.

Assay [3] concerns the target T2, B Cell Maturation Antigen (BCMA) on cells (UniProt Q02223 1-184, limits assumed).
T2 construct: whole, on cells; One molecule is used for the recombinant (CHOK1) and the endogenous (myeloma lines) cell-surface BCMA; also called tumor necrosis factor receptor superfamily member 17 (TNFRSF17); CD269
T2 sequence (looked up): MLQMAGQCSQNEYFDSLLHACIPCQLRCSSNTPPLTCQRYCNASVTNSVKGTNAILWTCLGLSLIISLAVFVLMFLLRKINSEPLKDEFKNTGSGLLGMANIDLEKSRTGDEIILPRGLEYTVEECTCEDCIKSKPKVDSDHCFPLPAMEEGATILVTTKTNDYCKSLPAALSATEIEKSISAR
The assay can be described thus: flow cytometry, serial diluted scFv on BCMA/CHOK1 cells. The procedure:
Cells were spun down at 1200 rpm for 6 minutes at 4° C. to remove primary antibodies. Cells were then washed once with 200 μL of full medium per well. Samples were detected with premixed anti-His Biotin Streptavidin Alexa fluor 647 by adding 100 μL of diluted secondary antibody and incubated at 4° C. for 30 minutes in the dark. Samples were spun down at 1200 rpm for 5 minutes at 4° C. and washed twice with 200 μL of 1×PBS per well. Reconstituted samples in 200 μL of 1×PBS and read on Attune NxT cytometer. Analysis was done by Attune NxT software plotting the overlaying the histogram of anti-BCMA scFvs binding onto both negative and target cell lines. […] The BCMA cell binding affinity for exemplary anti-BCMA antibodies (in scFv format) was also generated with serial diluted scFvs as described above.

Assay [4] addresses T2, B Cell Maturation Antigen (BCMA) on …. The assay can be described thus: flow cytometry on H929 multiple myeloma cells (endogenous BCMA). For orientation: A flow cytometer gives signals particle by particle.
Assay [5] has the same target. The assay can be described thus: flow cytometry on MM1R multiple myeloma cells (endogenous BCMA).

B1: BC-02 (anti-BCMA antibody in scFv format) (scFv)
scFv: QVQLVQSGGGVVQPGGSLRLSCAASGFTFSSYGMHWVRQAPGKVLEWVAFIRYDGSNKYYADSVKGRFTISRDNSKNTLYLQMNSLRAEDTAVYYCAKDWDYYDSSGYYPDALGIWGQGTMVTVSSGGGGSGGGGSGGGGSEIVLTQSPSSLSASVGDRVTITCQASQDISNYLNWYQQKPGKAPKLLIYDASNLETGVPSRFSGSGSGTDFTFTISSLQPEDIATYYCQQYDNLPFTFGPGTKVDIK
notes: Human scFv from mRNA display, VH-(G4S)3-VL, expressed in E. coli periplasm, His-purified; not shown: C-terminal flag and 6xHis tag
With B1, in assay [1], the EC50 worked out at 1.92 nM. In assay [2], this molecule had a Kd of 12.9 nM, a koff of 0.00118 s⁻¹ and an association rate constant (kon) of 91600 M⁻¹ s⁻¹. This molecule also came in with an EC50 in assay [3] of 84 nM.

B2: BC-03 (anti-BCMA antibody in scFv format) (scFv)
scFv: QMQLVQSGGGVVQPGGSLRLSCAASGFTFSSYGMHWVRQAPGKGLEWVAFIRYDGSDKYYADSVKGRFTISRDNSKNTLYLQMNSLRAEDTAVYYCAKDLTTITPGYWGQGTLVTVSSGGGGSGGGGSGGGGSVIQMTQSPSSLSASVGDRVTITCQASQDISNYLNWYQQKPGKAPKLLIYDASNLETGVPSRFSGSGSGTDFTFTISSLQPEDIATYYCQQYDNLPLTFGGGTKVEIK
notes: as for B1
B2 gave a concentration for a half-maximal effect (EC50) in assay [1] of 2.32 nM. In assay [2], this molecule yielded a Kd of 11.9 nM, an off-rate (koff) of 0.00359 s⁻¹ and a kon of 302000 M⁻¹ s⁻¹. Further, in assay [3], the EC50 came to 16.1 nM.

B3: BC-01 (anti-BCMA antibody in scFv format) (scFv)
scFv: EVQLVQSGGGVVQPGGSLRLSCAASGFTFSSYGMHWVRQAPGKGLEWVAFIRYDGSNKYYADSVKGRFTISRDNSKNTLYLQMNSLRAEDTAVYYCAKDLWDGIVGAPAGYWGQGTLVTVSSGGGGSGGGGSGGGGSDVVMTQSPSSLSASVGDRVTITCQASQDISNYLNWYQQKPGKAPKLLIYDASNLETGVPSRFSGSGSGTDFTFTISSLQPEDIATYYCQQYDNLPLTFGGGTKVEIK
notes: as for B1
The molecule B3 gave an EC50 in assay [1] of 0.938 nM. Besides, in assay [2], binding was put at a Kd of 3 nM, the koff turned out to be 0.000431 s⁻¹ and the on-rate constant (kon) turned out to be 144000 M⁻¹ s⁻¹. In addition, the response in assay [3] was half-maximal at 18.9 nM (EC50).

B4: BC-09 (anti-BCMA antibody in scFv format) (scFv)
scFv: QVQLVQSGGGVVQPGGSLRLSCAASGFTFSSYGMHWVRQAPGKGLEWVAFIRYDGSNKYYADSVKGRFTISRDNSKNTLYLQMNSLRAEDTAVYYCAKDLWEFGGDYADYWGQGTLVTVSSGGGGSGGGGSGGGGSNIQMTQSPSSLSASVGDRVTITCQASQDISNYLNWYQQKPGKAPKLLIYDASNLETGVPSRFSGSGSGTDFTFTISSLQPEDIATYYCQQYDNLPLTFGGGTKVEIK
notes: as for B1
For the molecule B4, the response in assay [1] was half-maximal at 0.597 nM (EC50). In assay [2], this molecule showed a dissociation constant Kd of 19.6 nM, a koff of 0.00407 s⁻¹ and an on-rate (kon) of 208000 M⁻¹ s⁻¹. Moreover, the response in assay [3] was half-maximal at 5.28 nM (EC50).

B5: BC-08 (anti-BCMA antibody in scFv format) (scFv)
scFv: QVQLVQSGGGVVQPGRSLRLSCAASGFTFSSYAMHWVRQAPGKGLEWVAVISYDGSNKYYADSVKGRFTISRDNAENSVYLQMNSLRAEDTAVYYCARDEHQVVPNYRFDFWGQGSQVTVSSGGGGSGGGGSGGGGSQLVLTQPPSASGTPGQRVTISCSGSGSNIGSNDVSWYQQIPGTASKLLIYWNDQRPSGVPDRFSGSKSGTSASLAISGLQSEDEADYYCAAWDDSLNGWVFGGGTKLTVL
notes: as for B1
As for B5, in assay [1], the response was half-maximal at 0.299 nM (EC50). In assay [2], this molecule gave a dissociation constant Kd of 0.653 nM, a koff of 0.00116 s⁻¹ and a kon of 1.78e+06 M⁻¹ s⁻¹. The molecule also came in with an EC50 in assay [3] of 1 nM.

B6: BC-05 (anti-BCMA antibody in scFv format) (scFv)
scFv: QMQLVQSGGGVVQPGGSLRLSCAASGFTFSSYGMHWVRQAPGKGLEWVAFIRYDGSNKYYADSVKGRFTISRDNSKNTLYLQMNSLRAEDTAVYYCAKDWEDPLYYYDTPFWGQGTLVTVSSGGGGSGGGGSGGGGSVIWMTQSPSSVSASVGDIITITCQASQDINNYLNWYQLKPGKAPKLLIYDASNVETGVPSRFSGSGSGTDFTFTISSLQPEDTATYYCQQYDKLPYTFGQGTKLEIK
notes: as for B1
Take B6: in assay [1], the midpoint of the response, the EC50, lay at 0.536 nM. Also, in assay [2], the Kd was found to be 10.4 nM, the dissociation rate constant (koff) amounted to 0.000646 s⁻¹ and the kon came out at 62400 M⁻¹ s⁻¹. The midpoint of the response in assay [3], the EC50, lay at 4.91 nM.

B7: BC-06 (anti-BCMA antibody in scFv format) (scFv)
scFv: EVQLVESGGGLVQPGRSLRLSCAASGFTFDDYAMHWVRQAPGKGLEWVSGISWNSGSIGYADSVKGRFTISRDNAKNSLYLQMNSLRAEDTALYYCAKVQPPGAFDIWGQGTMVTVSSGGGGSGGGGSGGGGSDIQLTQSPSFLSASVGDRVSITCRSTQGISSYLGWYQQKPGKAPKLLIYATSTLQSGVPSRFSGSGSGTEFTLTISSLQPEDFATYYCQQLYSFGQGTKLEIK
notes: Human scFv from mRNA display, VH-(G4S)3-VL, expressed in E. coli periplasm, His-purified; also called clone BC-06; not shown: C-terminal flag and 6xHis tag
For the molecule B7, the EC50 turned out to be 0.62 nM in assay [1], 2.85 nM in assay [4], 0.74 nM in assay [5] and 1.9 nM in assay [3]. In addition, the dissociation constant Kd in assay [2] turned out to be 7.87 nM. The koff in assay [2] amounted to 0.00251 s⁻¹. In addition, in assay [2], the association rate constant (kon) came out at 319000 M⁻¹ s⁻¹.

B8: BC-07 (anti-BCMA antibody in scFv format) (scFv)
scFv: B7 scFv with P101S
notes: as for B1
In the case of B8, a half-maximal response in assay [1] (EC50) required 0.802 nM. In addition, in assay [2], the Kd came out at 26.2 nM, the off-rate (koff) is 0.00592 s⁻¹ and the kon amounted to 226000 M⁻¹ s⁻¹. The same molecule came in with a 50% effective concentration (EC50) in assay [3] of 13.2 nM.

(Values after patent US20260097076A1 (ELPIS BIOPHARMACEUTICALS, published 2026).)
